# Residue numbers refer to the chain shown, from its start. In names and notes the source's numbering stands.
# T1: human lymphotoxin (human, UniProt P01374 35-205, limits assumed)
# T1 sequence (looked up): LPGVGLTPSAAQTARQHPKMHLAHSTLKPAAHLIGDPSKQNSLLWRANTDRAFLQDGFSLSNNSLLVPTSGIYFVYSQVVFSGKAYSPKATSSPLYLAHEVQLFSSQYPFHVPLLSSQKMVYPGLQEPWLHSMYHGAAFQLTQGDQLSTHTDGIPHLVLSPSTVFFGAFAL
# B1: GenTNV148.26.12 (antibody, human IgG1, kappa, V domains shown)
# VH: QVQLVESGGGVVQPGRSLRLSCAASGFIFSSYAMHWVRQAPGNGLEWVAFMSYDGSNKKYADSVKGRFTISRDNPKNTLYLQMNSLRAEDTAVYYCARDRGIAAGGNYYYYGMDVWGQGTTVTVSS
# VL: EIVLTQSPATLSLSPGERATLSCRASQSVYSYLAWYQQKPGQAPRLLIYDASNRATGIPARFSGSGSGTDFTLTISSLEPEDFAVYYCQQRSNWPPFTFGPGTKVDIKR
# notes: Totally human IgG1 kappa from hybridoma, tested as hybridoma supernatant; also called C420A
# B2: GenTNV86.14.34 (antibody, human IgG1, kappa, V domains shown)
# VH: B1 VH
# VL: B1 VL
# notes: Totally human IgG1 kappa from hybridoma, tested as hybridoma supernatant; Only the variable regions were compared; also called C417A
# B3: golimumab (antibody, human IgG1, kappa, V domains shown)
# VH: B1 VH with P75S
# VL: B1 VL
# notes: Fully human IgG1 (G1m[z] allotype), kappa; also called SIMPONI
# Experiments:
# [1] = biological target: T2, recombinant human TNFα (human, UniProt P01375 77-233, 125I label in the receptor-blocking assay only); test: cell-based or functional assay
# [2] = biological target: T2, recombinant human TNFα; test: inhibition of 125I-TNFα binding to plate-coated p55-sf2, hybridoma supernatants
# Experimental: (§1) Assay for Inhibition of TNF Binding to Receptor. […] Serial dilutions of the eight TNV cell supernatants were prepared in 96-well round-bottom plates using PBS/0.1% BSA as diluent. […] The mixture was preincubated for one hour at RT. […] After 2 hrs at RT, Optiplates were washed three times with PBS-Tween. […] of Microscint-20 was added and the cpm bound determined using the TopCount gamma counter.
# A simple binding assay was done to determine whether the eight TNV mAbs contained in hybridoma cell supernatant were capable of blocking TNFα binding to receptor. The concentrations of the TNV mAbs in their respective cell supernatants were first determined by standard ELISA analysis for human IgG.
# [3] = biological target: T2, recombinant human TNFα; test: competition: 125I-TNFα (5 ng/ml) preincubated with hybridoma supernatant, then bound to plate-coated p55-sf2, gamma counting; blocked partner p55-sf2
# Experimental: Varying amounts of hybridoma cell supernatants containing known amounts of TNV mAb were preincubated with a fixed concentration (5 ng/ml) of ¹²⁵I-labeled TNFα. […] Although eight TNV mAb samples were tested in these experiments, for simplicity three of the mAbs that were shown by DNA sequence analyses to be identical to one of the other TNV mAbs (see Section 5.2.2) are not shown here. Each sample was tested in duplicate. The results shown are representative of two independent experiments.
# as §1
# A simple binding assay was done to determine whether the eight TNV mAbs contained in hybridoma cell supernatant were capable of blocking TNFα binding to receptor.
# [4] = biological target: T1, human lymphotoxin; test: not described
Binder,neutralizing TNFα bioactivity [1] [fold],fold better at blocking TNF binding than TNV118 and TNV14 [2] [fold],IC50 (read off the curve) [3] [ng/mL],binding result [4]
B1,4,~4,~4,
B2,,~4,,
B3,,,,no binding
